Measurements published in the RNAGym collection of RNA variant scans (doi:10.1073/pnas.2313332121).

B1: TPR t1 (parent)
chain: GACCAAUCUGCCCUCAGAGCUCGAGAACAUCUUCGGAUGCAGAGGAGGCAGGCUUCGGUGGCGCGAUAGCGCCAACGUCCUCAACCUCCAAUGCAUCCCACCACAUGAUGAUGCCUGAAGAGCCUUGGUUUUUUG

Variants of: B1
Assay: polymerase ribozyme fitness, log enrichment relative to wild type (log ratio); higher = more active; in vitro selection for triplet polymerase activity
Summary of the method: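 PCR was used to build mutant libraries for each subunit of a heterodimeric triplet polymerase ribozyme, which were then transcribed. A single in vitro selection round, in triplicate, used a frozen incubation at −7 °C and recovered extended constructs by gel excision, streptavidin beads and RT-PCR. Fitness is the logarithm of genotype enrichment relative to wild-type enrichment, averaged over replicates with inverse-variance weights. The logarithm is base 2, and after Illumina sequencing only genotypes with ≥10 input reads and ≥1 read per output were kept.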

| Variant | polymerase ribozyme fitness (log ratio) |
| --- | --- |
| GACCAAUCUGCCCUCGGAGCCCGAGAACAUCUUCGGAUGCAGAGGAGACAGGCUUCGGUGGCGCGAUAGCGCCAACGUCCUCAACCUCCAAUGCAUCCCCCCACAUGAUGAUGCCUGAAGAGACUUGGUUUUUUG | -4.34 |
| GACCAAUCUGCCCUCGGAGCUCGAGAACAUCUUCGGAUGCAGAGGAGGCAGGCUACGGUAGCGCGAUAGCGCCAACGUCCUCAACCUCCAAUUCAUCCCACUACAUGAUGAUGCCUGAAGAGCCUUGGUGUUUUG | -3.39 |
| GACCAAUCUGCCCUCUGAGCUCGAGAACAUCUUCGGAUGCGGAAGAGGCAGGCUUCGGUGGCGCGAUAGCGCCAACGUCCUCAACCUCCAAUGCAUCCCACCACAUGAUGAUGCCUCAAGAGCCUUGGUUUUUUG | -4.44 |
| GACCAAUCUGCCCUCGGAGCUCGAGAACAUCUUCGGAUACAGAGGAGGCAGGCUUCGGUGGCGCGAUAGCGCCAACGUCCUCAACCUCCAAUGCAUCCCACCACAUGAUGAUGCAUGAAGAGCCUUGGUUUUUUG | -2.22 |
| GACCAAUCUGCCCUCUGAGCUCGAGAACAUCUUCGGAUGCAGAGGAGGCGGGCUUCGGUUGCGCGAUAGCGCCAACGUCCUCAACCUCCAAUGCAUGCCACCACAUGAUGAUGCCUGAAGAGCCAUGGUUUUUUG | -7.95 |
| GACCAAUCUGCCCUCUGAGCUCGAGAACAUCUUCGGAUGCAGAGGAGGCAGGCUUCGGUGGCGCGAUAGCGCCAACGUCCUCCACCUCCAAUGCAUCCCACCACAUGAUGAUGCCUGAAUAGACUUCGUUAUUUG | -1.95 |
| GACCAAUCUGCCCUCUGAGCUCGAGAACAUCUUCGGUUGCAGAGGAGGCAGGCUUGGGUGGCGCGAUAGCGCCAACGUCCUCAACCUCCAAUGCAUCCCACCACAUGAUGAUGCCUGAAGAGCCUUGGUUUUUUG | -3.71 |
| GACCAAUCUGCCCUCGGAGCUCGAGAACAUCUUCGGAUGCAGAGGAGGCAGGCUUCGGUGGCGCGAUAGCGCCAACGUCCUCAACCUCCAAUACAUCCCACCACAUGAUGAUGCCUGAAGAGCCUUGGUUUUUUG | -2.61 |
| GACCAAUCUGCCCUCGGAGCUCGAGAACAUCUUCGGAUGCAGAGGAGGCAGGCUUCGGUGGCGCGAUAGCGCCAACGUCCUCAACCUCCAAUGCAUGCCACCACAUGAUGAUGCCCGAAGAGCCUUGGUUUUUUG | -2.75 |
| GACCAAUCUGCCCUCUGAGCUCGAGAACAUCUUCGGAUGCAGAGGAGGCAGGCUUCGGUGGCGCGAUAGCGCCAACGUCCUCUACCUCCAAUGCAUCCCACCACAUGAUGAGGCAUGAAGAGCCUUGGUUUUUUG | -4.6 |
| GACCAAUCUGCCCUCGGAGCUCGAGAACAUCUUCGGAUGCAGAGGAGGCAGGCUUCGGUAGCGCGAUAGCGCCAACGUCCUCAACCUCCAAUGCAUCCCACCACAUGAUGAUGCCUGAACAGCCUUGGUUUUUUG | -0.306 |
| GACCAAUCUGCCCUCGGAGCUCGAGAACAUCUUCGGAUUCAGAGGAGGCAGGGUUCGGUGGCGCGAUAGCGCCAACGUCCUCAACCUCCAAUGCAUCCCACCACAUGAUGAUGCCUGAAGAGCCUUGGUUUUUUG | -2.41 |
| GACCAAUCUGCCCUCGGAGCUCGAGAACAUCUUCGGAUGCAGAGGAGGCAGGCUUCGGUGGCGCGAUAGCGCCAACGUCCUCAACCUCCAAUGCAUCCCACCACAUGAUGAUGCCCGAAGAGCCUUGGUUUUUUG | 1.6 |
| GACCAAUCUGCCCUCGGAGCUCGAGAACAUCUUCGGAUGCAGAGGAGGCAGGCUUCGGUGGCGCGAUAGCGCCAACGUCCUCAACCUCCAAUGCAUCCCACCACAUGACGAUGCCUGAAGAGCCUUGGUUUUUUG | -5.19 |
| GACCAAUCUGCCCUCUGAGCUCGAGAACAUCUUCGGUUGCAGAGGAGGCAGGCUUCGGUGGCGCGAUAGCGCCAACGUCCUCAACCUCCAAUGCAUCCCACCACAUGAUGAUGCCUGAAGAGCCUUGGUUUUUUG | -2.13 |
| GACCAAUCUGCCCUCUGAGCUCGAGAACAUCUUCGGGUGCAGAGGAGGCAGGCUUCGGUGGCGCGAUAGCGCCAACGUCCUCAACCUCCAAUGCAUCCCACCACAUGAUGAUGCCUGAAGAGCCUUGGUUUUUUG | -2.1 |
| GACCAAUCUGCCCUCGGAGCUCGAGAACAUCUUCGGAUGCAGAGGAGGCAGGCUUCGGUGGCGCGAUAGCGCCAACGUCCUCAACCUCCAAUGCAUCCCACCACAUGAUGAUGCCUGAAGAGCCUUGGGUUUUUG | -3.64 |
| GACCAAUCUGCCCUCUGAGCUCGAGAACAUCUUCGGAUGCAGAGGAGGCAGGCUUCGGUGGCGCGAUAGCGCCAACGUCCUCAUCCUCCAAUGCAUCCCUCCACAUGAUGAUGCCUGAAGAGCAUUGGGUUUUUG | -0.308 |
| GACCAAUCUGCCCUCUGAGCUCGAGGACAUCUUCGGAUGCAGAGGAGGCAGGCUUCGGUGGCGCGAUAGCGCCAACGUCCUCAACCUUCAAUGCAUCCCACCACAUGAUGAUGCCUGAAGAGCGUUGGUUUUUUG | -1.11 |
| GACCAAUCUGCCCUCGGAGCUCGAGAACAUCUUCGGAUGCAGAGGAGGCAGGCUUCCGUGGCGCGAUAGCGCCAACGUCCUCAACCUCCAAUGCAUCUCACCACAUGAUGAAGCCUGAAGAGCCUUGCUUUUUUG | -5.3 |
| GACCAAUCUGCCCUCGGAGCUCGAGAACAUCUUCGGAUGCAGAGGAGGCAGGCUUCGGUGGCGCGAUAGCGCCAACGUCCUCAACCUCCAAUGCAUCUCACCACAUGAUGAUGCCUGAAGAGCCUUGGUUUUUUG | -3.02 |
